Tested on: peptide library, one residue held at a place counted from the S/T acceptor
Experiment: relative phosphorylation of the sub-library (ratio to the mean residue at this position); higher = residue favoured
Conditions: human
Method in brief: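 Purified recombinant kinases (human or orthologue constructs) were incubated in 384-well plates with biotinylated degenerate peptide sub-libraries, each fixing one residue at one position around a central Ser/Thr. Peptides were at 50 μM, with 50 μM ATP spiked with γ-32P-ATP, for 90 min under kinase-specific conditions. Spots on streptavidin membranes were phosphorimaged and quantified by densitometry. Relative sub-library phosphorylation is a ratio to the mean residue at that position.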

Sequence of HIPK1, construct: aa158-555 (Q86Z02 158-555, looked up): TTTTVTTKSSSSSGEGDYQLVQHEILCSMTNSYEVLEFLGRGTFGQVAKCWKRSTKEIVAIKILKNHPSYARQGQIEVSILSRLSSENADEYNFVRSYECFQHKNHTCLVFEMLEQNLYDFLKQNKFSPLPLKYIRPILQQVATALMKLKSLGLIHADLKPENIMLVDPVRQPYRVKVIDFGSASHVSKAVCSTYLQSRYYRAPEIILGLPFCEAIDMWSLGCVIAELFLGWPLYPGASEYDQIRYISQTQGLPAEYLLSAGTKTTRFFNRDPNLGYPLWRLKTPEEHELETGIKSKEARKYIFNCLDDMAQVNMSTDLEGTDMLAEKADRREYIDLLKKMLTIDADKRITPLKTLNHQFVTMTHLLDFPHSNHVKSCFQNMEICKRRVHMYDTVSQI

HIPK1, construct: aa158-555 (from UniProt Q86Z02)
relative phosphorylation
Conditions | at +1 | at +2 | at +3 | at +4 | at -1 | at -2 | at -3 | at -4 | at -5
A fixed | 0.711 | 1.04 | 0.979 | 0.83 | 1.21 | 2.16 | 0.93 | 1 | 0.905
D fixed | 0.165 | 0.679 | 0.59 | 0.795 | 0.471 | 0.278 | 0.49 | 0.719 | 0.716
E fixed | 0.193 | 0.512 | 0.51 | 0.687 | 0.485 | 0.283 | 0.464 | 0.762 | 0.634
F fixed | 0.264 | 1.15 | 0.885 | 1.04 | 0.567 | 0.398 | 0.342 | 0.668 | 0.793
G fixed | 0.896 | 1.37 | 1.19 | 1.14 | 1.26 | 0.872 | 1.27 | 1.13 | 0.991
H fixed | 0.354 | 1.23 | 1.17 | 1.07 | 0.881 | 0.454 | 0.698 | 0.884 | 1.06
I fixed | 0.421 | 0.708 | 0.92 | 0.978 | 0.536 | 0.999 | 0.42 | 0.781 | 0.883
K fixed | 0.503 | 1.42 | 0.886 | 1.12 | 1.75 | 0.898 | 1.13 | 1.3 | 1.26
L fixed | 0.329 | 0.928 | 1.2 | 1 | 0.682 | 0.862 | 0.525 | 0.876 | 0.84
M fixed | 0.272 | 0.815 | 0.972 | 1.04 | 0.916 | 0.607 | 0.484 | 0.793 | 0.742
N fixed | 0.318 | 1.04 | 0.826 | 1.01 | 0.761 | 0.735 | 0.677 | 0.704 | 0.928
P fixed | 8.97 | 1.1 | 2.4 | 1.14 | 1.91 | 2.58 | 1.07 | 1.22 | 1.21
Q fixed | 0.399 | 0.888 | 0.885 | 0.981 | 0.967 | 0.605 | 0.71 | 0.856 | 0.89
R fixed | 1.85 | 1.55 | 1.06 | 1.13 | 2.49 | 3.33 | 6.49 | 3.08 | 2.25
V fixed | 0.793 | 0.755 | 0.863 | 0.954 | 0.645 | 1.17 | 0.47 | 0.706 | 0.794
W fixed | 0.284 | 0.966 | 0.886 | 1.16 | 0.673 | 0.389 | 0.426 | 0.784 | 0.825
Y fixed | 0.276 | 0.848 | 0.772 | 0.917 | 0.801 | 0.381 | 0.397 | 0.723 | 1.27
pThr fixed | 0.387 | 0.46 | 0.541 | 0.711 | 0.485 | 1.05 | 0.712 | 0.94 | 1.05
pTyr fixed | 0.453 | 0.444 | 0.772 | 0.757 | 0.599 | 0.431 | 0.644 | 0.648 | 1.04
